Consider 41 sequences from the nanobody polyreactivity screen of Harvey et al. (2022).

The nature of the series: yeast display, Sf9 membrane polyspecificity reagent, FACS + sequencing; frameworks hold sequencing errors. The procedure, abridged: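 Sorting gates, low and high (top ~1%), were placed on anti-HA fluorescence to track expression and on streptavidin fluorescence to track reagent binding. A clone's polyreactivity label is taken from the gate it came out of. The reagent was 10% biotinylated, detergent-solubilized Sf9 membrane, applied for 1 hour at 4 °C to galactose-induced yeast display cells.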
Take “QVQRVESGGGLVQAGGSLRLSCAASGYTFQWYDMGWYRQAPGKERELVASISWRGGSTYYADSVKGRFTISRDNAKNTVYFQMNSLKPEDTAVYYCAASLLPDYQYDYWGQGTQVTVSS”: the “polyreactivity (PSR sort gate)” value is on record as “low polyreactivity”.
For “QVQLVESGGGLVQAGGSLRLSCAASGRTFGYYAMGWYRQAPGKEREFVAAISWSGGSTYYADSVKGRFTISRDNAKNTVYLQMNSLKPEDTAVYYCATDTTYYAGSWYGYWGQGTQVTVSS” the value was “low polyreactivity”; for “QVQLEESGGGLVQAGGSLRLSCAASGITYYYAMGWYRQAPGKERELVAVITPGVSTNYADSVKGRFTISRDNAKNSVYLHMNSLKPEDTAVYYCATDVQVPCIGRSVYAYEYWGQGTQVTVSS”, “low polyreactivity”; for “QVQLVESGGGLVQAGGSLRLSCAASGRIFLSNGMGWYRQAPGKERELVAGITTGGGDSTYYADSVKGRFTISRDNAKNTVYLQMNSLKPEDTAVYYCNADSVYAGFDYWGQGTQVTVSS”, “low polyreactivity”.
Regarding “QVQLVESGGGLVQAGGSLRLSCASSGFIFKRYAMGWYRQAPGKERELVAAITSGGSTHYADSVKGRFTISRDNAKNTVYLQMNSLKPEDTAVYYCATRRYKWGVRYDYWGQGTQVTVSS”, the “polyreactivity (PSR sort gate)” value is reported as “high polyreactivity”.
In the case of “QVQLVESGGGLVQAGGSLRLSCAASGRIFLGYAMGRYRPARGKERELVAAISTSGGSTYYADSVKGRFTISRDNAKNTVYLQMNSLKPEDTAVYYCAARNVRTYVTGVDYDYWGQGTQVTVSS”, the “polyreactivity (PSR sort gate)” value was “high polyreactivity”.
For “QVQLVESGGGLVQAGGSLRLSCAASGRTVVNAMGWYRQAPGKERELVAAISSNGGRTYYADSVKGRFTISRDNAKNTVYLQINSLKPEDTAVYYCAAGYIWFRKIQFDYWGQGTQVTVSS” the value was “high polyreactivity”.
Turning to “QVQLVESGGGLVQAGGSLRLSCAASGSISGYYAMGWYRQAPGKERELVASIRYTGARTYYADSVKGRFTISRDNAKNTVYLQMNSLKPEDTAVYYCAADFRSVFSKYSYYLYFDFDYWGQGTQVTVSS”, the “polyreactivity (PSR sort gate)” value is listed as “low polyreactivity”.
Next, “QVQLVESGGGLVQAGGSLRLSCAASGIIIKYYAMGWYRQAPGKERELVAAITDRGGSTYYADSVKGRFTISRDNAKNTVYLQMNSLKPEDTAVYYCAARRRAYTPYYYWGQGTQVTVSS”: “high polyreactivity”; “QVQLVESGGGLVQAGGSLRLSCAASGITFVFYAMGWYRQAPGKERELVAAISWSGGITYYADSVKGRFTISRDNAKNTVYLQMNSLKPEDTAFYYCAATKRQTKYYGGTTDSIMYYWGQGTQVTVSS”: “low polyreactivity”; “QVQLVESGGGLVQEGGSLRLSCAASGFTFRANAMGWYRQAPGKERELVAVITGSGRTYYSDSVKGRFTISRDNAKNTVYLQMNRLKPEYTAVYYCAARAAYRVSSAGYDSLGQGTQVTVSS”: “high polyreactivity”.
For “QVQLVESGGGLVQAGGSLRLSCAASGFTFYKYAIGWYRQAPGKERELVAGIRRGGTNYADSVKGRFTISRDNAKNTVFLQMNSLKPEDTAVYYCAADVRPYYSAYRGRYYYWGQGTQVTVSS” the value was “high polyreactivity”; for “QVQLVESGGGLVQAGGSLRLSCAASGSTFARNAMGWYRPAPGKERELVAAITNAGDTNYADSVKGRFTISRDNAKNTVYLQMNSLKPEDTAVYYCAADTRFYSGRGTVSGDYWGQGTQVTVSS”, “low polyreactivity”; for “QVQLVESGGGLVQAGGSLRLSCAASGRIFLYYAMGWYRQAPGKERELVAAITSSGGGTYYADSVKGRFTISRDNAKNTVYLQMNSLKPEDTAVYYCNKAGPYYGYPHYLFYYWGQGTQVTVSS”, “high polyreactivity”.
Next, “QVQLVESGGGLVQAGGSLRLSCAASGFIFWLYAMGWYIQAPGKERELVASINWSGGDTYYADSVKGRFTISRDNAKNTFYLQMNSLKPEDTAVYYCTAKVLDSKSSFDYWGKGTQVTVSS”: “low polyreactivity”; “QVQLEESGGGLVQAGGSLRLSCAASGSIFDLNAMGWYRQAPGKERELVAANSSGGGTYYADSVKGRFTISRDNAKNTVYLQMNSLKPEDTAVYYCAAVGYKGYGYDYWGQGTQVTVSS”: “high polyreactivity”.
With “QVQLVESGGGLVQAGGSLRLSCAASGFIFHPYAMGWYRQAPGKERELVAAISWSGDGTYYADSVKGRFTISRDNAKNTVYLQMNSLKPEDTAVYYCNAGFYRSYYKSPMGYWGQGTQVTVSS”, the “polyreactivity (PSR sort gate)” value is on record as “low polyreactivity”.
Consider “QVQLVESGGGLVQAGGSLRLSCAASGRIFGRNVMGWYRQAPGKERELVAAISWIGGSTSYADSVKGRFTISRDNAKNTVYLQMNSLKPEDTAVYYCAAKPYGYRHYWGYDYWGQGTQVTVSS”, for which the “polyreactivity (PSR sort gate)” value is listed as “high polyreactivity”.
For “QVQLVESGGGLVQAGGSLRLSCAASGFIFPTYAMGWYRQAPGKERELVAAISRSGGRTYYADSVKGRFTISRDNAKNTVYLQKNSLKPEDTAVYYCAAAYLRRVAYDYWGQGTQVTVSS” the value was “high polyreactivity”.
Next, “QVQLVESGGGLVQAGGSLRLSCAASGSTSSPYAMGWYRQAPGKERELVAAITSGGSTNYADSVKGRFTISRDNAKNTVYLEMNSLKPEDTAVYYCATRIYGWSFGSWYKYDYRGQGTQVTVSS”: “low polyreactivity”; “QVQLVESGGGLVQAGGSLRLSCAASGSTFGFYAMGWYRQAPGKERELVAAITASGDSTYYADSVKGRFTISRDNAKNTVYLQMNSLKPEDTAVYYCNAVWRYYRKRRAGDFGYWGQGTQVTVSS”: “low polyreactivity”; “QVQLVESGGGLVQAGGSLRLSCAASGSTFPRYAMGWYRQAPGKERELVATITSGGSTYYADSVKGCFTISRDNAKNTFYLQMNSLKPEDTAVYYCAAGYRWTYTSGTYIRYNYWGQVTQVTVSS”: “high polyreactivity”.
For “QVQLVESGGGLVQAGGSLRLSCAASGLTFGSKAMGWYRQAPGKERELLAAISWNGGSTSYADSVKGRFTISRDNAKHTVYLQMNSLKPEDTAVNYCAADYFDSSYQPTDSILYEYWGQGTQVTVSS” the value was “low polyreactivity”.
For the sequence “QVQLVESGGGLVQAGGSLRLSCAASGNIFGWNDMGWCRQAPGKEWEVVAAISWTGDSTYDADSVKGRFTISRDNAKNTVYLQMNSLKPEDTAVYYGAADTPTLQYLTPRSEFDAWGQGTQVTVSS”, the “polyreactivity (PSR sort gate)” value is recorded as “low polyreactivity”.
For “QVQLVESGGGLVQAGGSLRLSCAASGRIFPYYAMGWYRQAPGKERELVATISSGGRTNYADTVMGRFTISRDNAKNTVYLQMNSLKPEDTAVYYCAADYRKSRVFYGLYYWGQGPQVTVSS”, the “polyreactivity (PSR sort gate)” value was “high polyreactivity”.
For the sequence “QVQLVESGGGLVQAGGSLRLSCAASGRIFYSYGMGWSRQGPGKERELVASITISGGGSTYYADSVKGRFTISRDNAKNTVYLQMISLKPEATAVYYCAATLTVWKYIYDYWGQGTQVTVSS”, the “polyreactivity (PSR sort gate)” value is “high polyreactivity”.
For “QVQIEDSGGGLVQAGGSLRLICAASGFTFINNDMGWYRQAPGKERELVAAISDSDGTTYYADSVKGRFTISRDNAKNTVYLQMNSLKPEDTEVYYCAADVVPTWEDEYWGQGTQVTVSS” the value was “low polyreactivity”; for “QVQLVESGGGLVQAGGSLRLSCAASGSIVYSYAMGWYRQAPGKERELVATISWSGGRTNYADSVKGRITISRDTAKNSVYLLMNSLKPVDTAVYYCAADIPPWGGDYWGQGTQVTVSS”, “low polyreactivity”.
As for “QVQLVESGGGLVQAGGSLSLICAASGRILSGNAMVWYRQAPGKERELVAAITNAGITKYAVSVKGRFTISRDNAKNTVYLQMNSLKPEHTEVYYCASDRYAYKLYDYWGQGTQVTVSS”, the “polyreactivity (PSR sort gate)” value is listed as “low polyreactivity”.
“QDQLVESGGGLVQAGGSLRLSCAASGRTFYYAMGWYRQAPGKERYADSVKGRFTISRDNAKNTVYLQMNSLKPEDTAVYYCAAKVPEPPSLDESDYWGQGTQVTVSS”: the “polyreactivity (PSR sort gate)” value is “low polyreactivity”.
Next, “QVQLVESGGGLVQAGGSLRLSCAASGRTFYYNAMGWYRQAPGKERELVAAISSGDTTKYADSVKGRFTISRDNAKNTVYLQMNSLKPEDTAVYYCAAVYQSYTYYLPKYWSFYQNDYWGLGTQVTVSS”: “low polyreactivity”.
For “QVQLVESRGGLLQAGGSLRLSCAASGFTFRQYTMGWYRQAPGKERELVAGITSSGTRTYYADSVKGRFTISRDNAKNTVYLQMNSLKPEDTAVYYCATYSRWDYGYWGQGTQVTVSS” the value was “high polyreactivity”; for “QVHLVESGGGLVQAGGSLRLSCAASGSTFYYNAMGWYRQAPGKERELDAAITFTGGSTYADSVKGRFTISRDNAKNTVYLQMNSLKPEDTAVYYCAAESLISWRYDYWGQGTQVTVSS”, “low polyreactivity”; for “QVQLVESGGGLVQAGGSLRLSRAASGIMFGSYAMGWYRQAPGKERELVAAITSRGGSTYYADSVKGRFTISRDNAKNTVYLQMISLKPEDTAVYYCADVLYYWRVVYYVYADTGDYWGQCTQVTVSS”, “high polyreactivity”.
For “QVQLVESGGGLVQAGGSLRLSCAASGITFSFYAMGWYRQAPGKERELVATIDSGGSTNYADSVKGRFTISRDNAKNTVYLQMNSLKPEDTAVYYCAADGVWYYYDMDYWGQGTQVTVSS” the value was “low polyreactivity”; for “QVQLVESGGGLVQAGGSLRLSCAASGSIFGRYAMGWYRQAPGKERELVAAISWNGGSTYYADSVKGRFTISRDNAKNTVYLQMNILKPEDTAVYYCAADSGYSGYYYWGQGTQVTVSS”, “high polyreactivity”.
“QVQLVESGGGLDQAGGSLRLSCAASGITFPAYAMGLYRQAPGKEREWVAAITSGSSTNYADSVKGRFTISRDNAKNTVYLHLNSLKPEDTAVYYCAAQASYWGYRSGNRYGYWGQGTQVTVSS”: the “polyreactivity (PSR sort gate)” value is recorded as “high polyreactivity”.
In the case of “QVQLVESGGGLVQAGGSLRLSCPAYGYTILPNAMGWYRQAPGKEREFVAAISYSGGRTYYADSVKGRFTISRDNAKNTVYLQMNSLKPEDTAVYYCATELYGYRYDYWGQGTQVTVSS”, the “polyreactivity (PSR sort gate)” value is given as “low polyreactivity”.
As for “QLQLVESGGGLVQAGGSLRLSCAASGFTFYYNALGWYRQAPGKDRELVSSITRSGGRTYYAESVKGRFTISRENAKNTVYLQKNSLKPEDTAVYFCARRYPGGYYWGQGTQVTVSS”, the “polyreactivity (PSR sort gate)” value was “high polyreactivity”.
Next, “QVQLVESGGGLVQAGGSLRLSCAASGSIFDFYAMGWYRQAPGKERELVAAITWSGDTTYYADSVKGRFTISRDNAKNTVYLQMNCLKPEDTAVYYCAAEGWYWWYGRDYYWGQGTQVTVSS”: “high polyreactivity”; “QVQLVESGGGLVQAGGSLRLSCAASGRIFVVYAMGGYRQAPGKERDLVASISRGGRTYYADSVKGRFTISRDNAKNTVYLQMNSLKPEDTAVYYCAVVVYLKNRDLFDYWGQGTQVTVSS”: “low polyreactivity”.
